The text below walks through data of PMC3167946 (Vaccine, 2011).

The experiment has as its target Envelope glycoprotein gp120Bal (HIV-1 isolate BaL (subtype B), clone …, UniProt Q6TAP7, strain). As to the kind of experiment: ELISA. In general terms: An ELISA detects its analyte on a solid surface through an enzyme-linked reagent.

A word on the EC50: it is the concentration needed to bring the measured effect to its halfway point.

B1: human mature b12 scFv (scFv, V domains shown)
VH: QVQLVQSGAEVKKPGASVKVSCQASGYRFSNFVIHWVRQAPGQRFEWMGWINPYNGNKEFSAKFQDRVTFTADTSANTAYMELRSLRSADTAVYYCARVGPYSWDDSPQDNYYMDVWGKGTTVIVSS
VL: EIVLTQSPGTLSLSPGERATFSCRSSHSIRSRRVAWYQHKPGQAPRLVIHGVSNRASGISDRFSGSGSGTDFTLTITRVEPEDFALYYCQVYGASSYTFGQGTKLERK
Take B1: the EC50 was found to be 300 pM.
